Experiment: yeast display, Sf9 membrane polyspecificity reagent, FACS + sequencing; frameworks hold sequencing errors
Summary of the method: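 Polyreactivity labels are assigned by the sorting gate from which each nanobody was recovered. The gates were low and high (top ~1%), set on anti-HA fluorescence for expression and streptavidin fluorescence for reagent binding. Before sorting, galactose-induced (36–48 hours) yeast display cells were stained for 1 hour at 4 °C with 10% biotinylated, detergent-solubilized Sf9 membrane reagent.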

| Sequence | polyreactivity (PSR sort gate) |
| --- | --- |
| QVQLVESGGGLVQAGGSLRLSCAASGSIFSWYAMGWYRQAPGKERELVAAITWTGGSTYYADSVKGRFTISRDNAKNTVYLQMNSLKPEDTAVYYCAARRVVYRYYWYSAYDYWGQGTQVTVSS | high polyreactivity |
| QVQLVESGGGLVQAGGSLRLRCASSGITFRGYAMGWYRQAPGKERELVASITNTDSTYYADSVKGRFTISRDNAKNTVYLQMNSLKPEDTAVYYCAARRGRKYGYWGQGTQVTVSS | high polyreactivity |
| QVQLVESGGGLVQAGGSLRLSCAASGRTFGYYAMGWYIQAPGKERELVAAISSRGGSTYYADSVKGRFTISRDNAKNTVYLQMNSLKPEDTAVYYCNTRWTNIHPRYDYWGQGTQVTVSS | high polyreactivity |
| QVQLVESGGGLVQAGGSLRLSCAASGFTFVYNALGWYRQAPGKERELVAAISGSGGSTYYADSVKGRFTISRDNAKNTVYLQMNSLKPEDTSVYYCNAVPSWRWEYDHWGQGTQVTVSS | high polyreactivity |
| QQQLVESDVGLDQAGRSHRLSCAASGFIFAPNAMGWYRQAPGKERELVAAITYRGGGTYYADSVKGRFTISRDNAKNTVYLQMNSLKPEDTAVYYCAAGYDSYYRGSYNYWGQGTQVTVSS | high polyreactivity |
| QVQLVESGRGLVQAGGSLRLSCAASGSIFGRNAMGWYRQAPGKERELVAAITWRGGRTYYADSVKGRFTISRDNAKNTVYLQMNSLKPEDTAVYYCAAVVAYQYTGYRFDYWGQGTQVTVSS | high polyreactivity |
| QVQLVESVGGLVKAGVSLRLSCAASGYIFPYYAMGWYRQAPGKERELVAAISRSGGGTYYADSVKGRFTISRYNAKNTVYFQMKSLKPVVTAVYYFNRRSGQVDVYDYWGQGTKVTVSS | low polyreactivity |
| QVQLVESGGGLDQAGGSLLLSCPASGRTFGTYAMGLYRQAPGKERELVASITSGDSTNYADSVKGRFTISRDNAKYTVYLQMNSQKPEDTAVYYCNASGYVMVTPPKLSFNYEYWGQGTQVTVSS | low polyreactivity |
| QVQLVESGGGLVQAGGSLRLSCAASGSIFWNYAMGWYRQAPGKERELVASITSGGSTNYADSVKGRFTISRDNEKNTVYLQMNSLKQEDTAVYSCNTDDDSSYTGYYSWGQGTQVTVSS | low polyreactivity |
| QVQLVESGGGLVQAGGSLRLSCAASGSTFAYYAMGWYRQAPGKERELVAAISWRGGSTYYADSVKGRFTISRDNAKNTVYLHMNSLKPEDTAVYYCATLSAWKASSYDYWGQGTQVTVSS | high polyreactivity |
| QVQLVESGGGLVQAGGSLRLSCAASGSSFPENAMGWYRQAPGKERQLVAGISRSDAGTHYADSVKGRFTISRDNAKNTVYVQMNSLKPEDTAVYYFDAGGTDEDRLTSWVGLFPAYYYWGQATQVTVSS | low polyreactivity |
| QVQLVESGGRLVQAGGRLRLSSAATGLIFYANAMGWYRQAPGKQREFVADISNSGGSTYYADSVKGRFTISRDNAKNTVYLQMNSLKPEDTAVYYCNRVAYKRGYGVRYGGDYDYSGQGTQVTVSS | low polyreactivity |
| QGQLVESGGGLVQAGGSLRLSCAASGSIFTFYTLGWYREAPGKVRELVAAINWSGSRTYYAASVKGRFTISRDNAKNTVYLQMNSLKPEDTAVYYCNAAIRYDWYQVLWNFSRESNYWGQGTQVTVSS | high polyreactivity |
| QVQLVESGGGLVQAGGSLRLSCAASGSTFFGNTMGWYRKAPGKERELVATITRRGGSTYYADSVKGRFTISRDNAKNTVYLQMNSLKPEDTAVYYCAKRGPYTKYDYWGQGTQVTVSS | low polyreactivity |
| QVQLVESGGGLVQAGFSLRLSCAASGNIYYKYAMGWYRQAPGKERELVAAITWRVVRTYYADSVKGRFTISRDNAKNTVYLQMNSLKPEDTAVYYCAALSRQSGDYWGQGTQVTVSS | high polyreactivity |
| QVQLVESGGGLVQAGGSLRLSCAASGRIFAYYAMGWYRQAPGKERELVAAISSGGTTNYADSVKGRFTISRDNAKNTVYLQMNSLKPEDTAVYYCNADGWRRSRQYYYWGQGTQVTVSS | low polyreactivity |
| QVQLVESGGGLVQAGGSLRISCAASGSIFYWNTMGWYRQAPGKERELVATITRSGGSTRYADSVKGRCTISRDNAKITVYLQMNSLKPEDTAVYYCAAYRVYKRVVRGFDYWGQGTQVTVSS | low polyreactivity |
| QVQLVESGGGLVQAGGSLRLSCAASGLIFSAYDMGWYRQAPGKERELVASITSGGSTYYADSVKGRFTISRDNAKNTVYLQMNSLKPEDTAVYYCNADGGWYQYRWRYIEGEYWGQGTQVTLSS | low polyreactivity |
| QVQLVESGGGLVQAGGSLRLSCAASGFIFYTYAMGWYIQAPGKERELVAAINTSGSTTNYADSVKGRFTISRDNAKNTVYLQMNSLKPEDTAVYYCAAEWNVSPYDYWGQGTQVTVSS | low polyreactivity |
| QVQLVESGGGLVQAGGSLRLSCAASGSIFYLYTMGWYRQAPGKERELVAAITSGGSTNYADSVKGRFTISRDNAKNTVYLQMNSLKPEDTAVYYCAAEYFDWWVTYDYWGQGTQVTVSS | high polyreactivity |
| QVQLVESGGGLVQAGGSLRLSCSAYGLILRTYGMGWYRQAPGKERELVAVISSGGSTYYADSVKGRFTISRDNEKNTVYLQMNSLKPEDTAVYYCAVRSSWYEGDYWGQGTQVTVSS | low polyreactivity |
| QVQLVESGGGLVQAGGSLRLSCAASGSIFSSYAMGWYRQAPGKERELVAAITSGGSTYYADSVKGRFTISRDNAKNTVYLLMNSLKPEDTAVYYCAARQVRTSILHMGYWGQGTQVTVSS | low polyreactivity |

| Sequence | polyreactivity (PSR sort gate) |
| --- | --- |
| QVQLVESGGGLVQAGGSLRLSCAASRFIFRRNAMGWYRQAPGKERELVAAITLSGGSTYYADSVKGRFTISRDNAKNTVYLQMKSLKPEDTAFYFCAARPGYYTRYDYWGQGTQVTVSS | low polyreactivity |
| QVQLVESGGGLVQAGGSLRLSCAASGIIFADNDMGWYRQAPVKERELVATISSAGNTNYADSVKGRFTISRDNAKNTVYLQMNSLKPEDTAVYYCAVVYYIPLLPPWIYEYDYWGQGTQVTVSS | low polyreactivity |
| QVQLVESGGGLVQAGGSLRLSCAASGRTFRLYAMGWYRDATGKERELFAAISRRGTSTHYADSVKGRFTISRDNAKNTVYLQMNSLKPEDTAVYYCAVDSNTYSFYGTHDDWGQGTQVTVSS | high polyreactivity |
| QVQLVESGGGLVLAGGSLRLSCAASGIIFYYYTMGWYRQAPGKERELVAWSGGNTNYADSVKGRFTISRDNAKNTVYLQMNSLIPEDSAVYYCNALAIWSDDWDQWISYADDYWGQGTQVTVSS | low polyreactivity |
| QVQLQESGDGLVQAGGSLRLSCAASGTIFTPHQMGWYRQAPGNEREFVATIDYGSSTNYADSLKGLFTISRDNAKNTMYPQMNSLKPEDTAVYYCANYYWGQGTQVTVSS | low polyreactivity |
| QVQLVESGGGLVQAGGSLRLSCAASGYTFGHYVMGWYRQAPGKERELVAAISRSGGSTYYADSVKGRFTISRDNAKNTVYLQMNSLKPEDTAVYYCARGRIGGGAPGDKSSLNYYYWGQGTQVTVSS | high polyreactivity |
| QVQLVESGGGLVQAGGSLRLSCAASGGTFYLNAMGWYRQAPGKERELVAGITWGGGRTYYADSVKGRFTISRDNAKNTVYLQMNSLKQEDTEVYYCAAGAWRGPYSGYYYWGQGTQVTVSS | low polyreactivity |
| QVQLVESGGGLVQAGGSLRLSCAASGSTLRRHAMGWYRQAPGKERELVAAISSGGSTYYEDSVKGRFTISRDNAKNTVYLQMNSLKPEDTAVYYCAAPYSYRTWYPYGYWVQGTQVTVSS | high polyreactivity |
| QVQLVESGGGLVQAGGSLRLSCAASGGIFFLYAMGWYRQAPGKETELVAAIRQDGGSTYYADSVKGRFTISRDNAKNTVYLQMNSLKPEDTAVYYCNAGYVKTGLEYYYWGQGPQVTVSS | low polyreactivity |
| QVQLVESGGGLVQAGGSLRLSSAASGRTFQYYAMGWYRQAPGKERELVAAIDSSGGSTYYADSVKGRFTISRDNAKNTVYLQMNSLKPEDTAVYYCIAGRYRYYYYGYDYWGQGTQVTVSS | high polyreactivity |
| QVQLVESGGGLVQAGGRLRLSCAASGINLGRYAMGWYRQAPGKERELVASISWSGGSTYYADSVKGRFTISRDNAKNTVYLQMNSLIPEDPAVYYCAATYWKSRYGVRGYPFGYWGQGTQVTVSS | high polyreactivity |
| QVQLVESGGGLVQAGGSLRLSCAASGSIFRRYAMGWYRQAPGKEREFVAAITRSGGGTYYADSVKGRFTISRDNAKNTVYLQMNSLKPEDTAVYYCAADAPNFGLYRDKDYDYWGQGTQVTVSS | high polyreactivity |
| QVQLQESGGGLVQAGGTLRLSCAANGNISYSNPMGWYRQPPGKEREFVASINPGSTTNYMDSVKGRFTISRDNAKNTVYLQMNSLKPEDTAVYYCNSVFFKSRQGQMYYWGQGSQVTVSS | high polyreactivity |
| QVQLVESGGGLVQAGGSLRLSCAASGRTFIGYAMGWYRQAPGKERELVAAISSGGNTYYADSVKGRFTISRDNAKNTVYFQMNSLKPEDTAVYYCAAKGYRRVARYFIGDYWGQGTQVTVSS | low polyreactivity |
| QVQLVESGGGLVQAGGSLRLSCAASGSIFYTYAMGWYRQAPGKERELVAAISRSGGSTYYADSVKGRFTISRDNAKNTVYLQMNSLKPEDTAVYYCAAVSYRGRGYWGQGTQVTVSS | high polyreactivity |
| QVQLVESGGGLVQAGGSLRLSCAASGSTFKRNAMGWYRQAPGKERELVAAISSSGGRTYYADSVKGRFTISRDNAKNTVYLQMNSLKPEDTAVYYCAAGIRTSAGYDYWGQGTQVTVSS | high polyreactivity |
| QVQLVESGGGLVQAGGSLRLSCAASGFTFNFNAMGCYIQAPGKERELLAAIRYRGGSTNYADSVKGSFTISRDNAKNTVYVMMNSLKPEDTAVYYCNVYYYRTYSHVLPGYEYWGQGTQVPVSS | high polyreactivity |
| QVQLVESGGGLVQAGGSLRLSCAASGSIFNVNSMGWYRQAPGKERELVAAISSGGDTYYADSVKGRFTISRDNAKNTVYLQMNSLKPEDTAVYYCAKQSYTLYTLLYDYWGLGTQVTVSS | low polyreactivity |
| QVQLVESGGGLVQAGGSLRLSCAASGSIFDRNAMGWYRQAPGKERELVAAINSNAGITYYADSVKGRFTISRDNAKITVYLQMNSLKPEDTAVYYCAADIRVVYREDHWGQGTQVTVSS | low polyreactivity |
| QVQLVESGGGLVQAGGSLRLSCAASGRTSLGYAMGWYRQAPGKERELVAAISGGTTYYADSVKGRCTISRDNAKNPVYLQMNSLKPEDTAVYYCNAVYVWFSGAPRRYTKRYYWGQGTQVTVSS | high polyreactivity |
| QVQLVESGGGLVQAGGSLRLSCAASGRTFPYNAMGWYRQAPGKERELVAAISYSGGRTYYADSVKGRFTISRDNAKNTVYLQMNSLKPEDTAVYYCNALGSGREDDYWGQGTQVTVSS | high polyreactivity |
